Measurements published in US20130115227A1 (Merck Sharp & Dohme, published 2013).
Changes are numbered by the printed parent chain.

Legend:
[1] = target: T1, amyloid β (Aβ)-derived diffusible ligands (ADDLs) (UniProt P05067 672-713); assay: ELISA, plate coated with ADDLs (50 pmol/well), anti-human IgG-alkaline phosphatase, luminescence; antibody not stored (0 timepoint)
T1 construct: domain: Aβ1-42; Soluble oligomers of Aβ1-42, with the number of chains per oligomer not fixed; They were prepared from HFIP film in DMSO/F12 and enriched on a 50 kDa filter; The result sentences say 'ADDLs'; also called ADDL oligomers; soluble …
Protocol: (§1) Determination of EC50. High protein binding plates (Costar, Corning, Lowell, Mass.), were coated with target ligand in PBS overnight at 4° C. The concentration of coating protein was 100 pmol/well for Aβ40 (American Peptide, Sunnyvale, Calif.) and 50 pmol/well for ADDLs. ADDLs were generated as described in Example 1B. Next day, plates were washed five times with PBS+0.05% Tween-20 (Sigma Aldrich, St. Louis, Mo.) and blocked overnight with Casein blocking buffer (ThermoScientific, Waltham, Mass.) and 0.05% Tween-20. […] After 2 hours at room temperature incubation, the plates were washed and alkaline phosphatase conjugated anti-human IgG (ThermoScientific, Waltham, Mass.) was added at 0.08 μg/ml. After 45 minutes at room temperature incubation, the plates were washed and Tropix® CDP®-Star chemiluminescent substrate (Life Technologies™, Carlsbad, Calif.) was added. Luminescence was detected after 30 minutes on an EnVision® microplate reader (PerkinElmer, Waltham, Mass.). Curve fits were completed using GraphPad Prism (GraphPad Software, Inc., San Diego, Calif.) software.

[2] = target: T1, amyloid β (Aβ)-derived diffusible …; assay: ELISA, plate coated with ADDLs (50 pmol/well), anti-human IgG-alkaline phosphatase, luminescence; antibody kept one month at 25 °C
Protocol: (§2) The codon AAT for N was mutated to AGT for S in 19.3S33 (SEQ ID NO: 55), ACT for T in 19.3T33 (SEQ ID NO: 56), GAA for E in 19.3E33 (SEQ ID NO: 67), or GAT for D in 19.3D33 (SEQ ID NO: 68), and the new condons in that position were confirmed by DNA sequencing. […] The expression and purification methods were described above in this example.
as §1, with “Mass.).” for “Mass.). Curve fits were completed using GraphPad Prism (GraphPad Software, Inc., San Diego, Calif.) software.”

[3] = target: T1, amyloid β (Aβ)-derived diffusible …; assay: ELISA, plate coated with ADDLs (50 pmol/well), anti-human IgG-alkaline phosphatase, luminescence; antibody kept one month at 40 °C
Protocol: as §2
as §1, with “Mass.).” for “Mass.). Curve fits were completed using GraphPad Prism (GraphPad Software, Inc., San Diego, Calif.) software.”

[4] = target: T1, amyloid β (Aβ)-derived diffusible …; assay: ELISA, plate coated with ADDLs (50 pmol/well), anti-human IgG-alkaline phosphatase, luminescence; antibody kept one month at 4 °C
Protocol: as §2
as §1, with “Mass.).” for “Mass.). Curve fits were completed using GraphPad Prism (GraphPad Software, Inc., San Diego, Calif.) software.”

[5] = target: T1, amyloid β (Aβ)-derived diffusible …; assay: phage/Fab ELISA on ADDLs, anti-M13-HRP detection
Protocol: Biotinylated ADDLs (bADDLs) or monomer Aβ1-40 or Aβ1-42 was added to a high-capacity streptavidin-coated plate (Sigma-Aldrich, St. Louis, Mo.) with 100 μL per well of coating reagent in PBS at 1 μM and incubated for two hours at room temperature. The plates were washed in PBS with 0.05% Tween (six times) and then PBS alone (three times) prior to blocking wells with 5% non-fat dry milk in PBS for one hour at room temperature. The wells were then washed and a serial dilution of antibody samples added to the plates and allowed to bind for two hours at room temperature. After incubation and washing, the antibody binding was detected with a goat anti-human IgG-Fc secondary antibody conjugated to horse radish peroxidase (HRP) (1:1,000; one hour at room temperature). The HRP label was visualized with tetramethyl benzidine (Virolabs, Chantilly, Va.) as a substrate and read at 450 nm on a microplate reader.
After each round of panning, single colonies were randomly picked to produce phage in 96-well plates. The procedures for phage preparation in 96-well plate were similar to that described above except no phage precipitation step was used. Culture plates containing colonies growing in 120 μL of 2×TY medium with 100 μg/ml ampicillin and 0.1% glucose were incubated overnight in a HiGro® shaker (Genomic Solutions, Ann Arbor, Mich.) at 30° C. with shaking at 450 rpm. The phage supernatants (about 100 μL) were directly used for analysis in the ADDL binding ELISA described above. One difference is that the binding of phage to ADDLs was detected with an anti-M13-antibody conjugated to HRP (Amersham Bioscience, GE Healthcare, Waukesha, Wis.).

[6] = target: T1, amyloid β (Aβ)-derived diffusible …; assay: ELISA, plate coated with ADDLs (50 pmol/well), 12 point antibody titration, anti-human IgG-alkaline phosphatase, luminescence
Protocol: as §1

[7] = target: T1, amyloid β (Aβ)-derived diffusible …; assay: KinExA; constant for Aβ1-40 monomer over constant for ADDLs
[8] = target: T1, amyloid β (Aβ)-derived diffusible …; assay: Biacore (SPR)
[9] = target: T1, amyloid β (Aβ)-derived diffusible …; assay: Biacore (SPR); affinity for Aβ1-40 monomer over affinity for ADDLs
[10] = target: T1, amyloid β (Aβ)-derived diffusible …; assay: KinExA, equilibrium constant in solution

T1 sequence (P05067 672-713 limits assumed): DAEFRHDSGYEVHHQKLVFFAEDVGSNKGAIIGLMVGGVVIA

B1: anti-ADDL antibody 19.3 (antibody, human IgG2, kappa, V domains shown)
VH: EVQLVESGGGLVQPGGSLRLSCAASGFTFSSFGMHWVRQAPGKGLEWVAYISRGSSTIYYADTVKGRFTISRDNAKNSLYLQMNSLRAEDTAVYYCARGITTALDYWGQGTLVTVSS
VL: DVVMTQSPLSLPVTPGEPASISCRSSQSIVHSNGNTYLEWYLQKPGQSPQLLIYKASNRFSGVPDRFSGSGSGTDFTLKISRVEAEDVGVYYCFQGSRLGPSFGQGTKLEIKR
notes: The same paragraph also says all VH were cloned into an IgG1 expression vector; copies: 2 + 2
EC50 (read off the curve) [1]: ~1 nM
EC50 (read off the curve) [2]: ~2 nM
EC50 (read off the curve) [3]: ~6 nM
EC50 (read off the curve) [4]: ~2 nM

B2: Fab clone 14.2 (phage-displayed) (Fab, V domains shown)
VH: B1 VH
VL: DVVMTQSPLSLPVTPGEPASISCRSSQSIVHSNGNTYLEWYLQKPGQSPQLLIYKASNRFSGVPDRFSGSGSGTDFTLKISRVEAEDVGVYYCFQGSRVPPGFGQGTKLEIK
notes: VH is deduced from the parental VH being kept in the library
binding result [5]: binds

B3: Fab clone 9.2 (phage-displayed) (Fab, V domains shown)
VH: B1 VH
VL: B2 VL with V99A, G102F
notes: as for B2
binding result [5]: binds

B4: Fab clone 11.4 (phage-displayed) (Fab, V domains shown)
VH: B1 VH
VL: B2 VL with P101V, G102R
notes: as for B2
binding result [5]: binds

B5: Fab clone 13.1 (phage-displayed) (Fab, V domains shown)
VH: B1 VH
VL: B2 VL with R98K, V99A, P100H, G102S
notes: as for B2
binding result [5]: binds

B6: anti-ADDL antibody 19.3T33 (antibody, V domains shown)
VH: B1 VH
VL: B1 VL with N33T
binding result [6]: binds

B7: Fab clone 7.2 (phage-displayed) (Fab, V domains shown)
VH: B1 VH
VL: B2 VL with R98Y, V99A
notes: as for B2
binding result [5]: binds

B8: humanized anti-ADDL antibody h3B3 (antibody, V domains shown)
VH: B1 VH
VL: B2 VL with R98H, G102T
notes: Parental antibody; also called humanized 3B3; h3B3 (parental)
Ratio (Aβ monomer/ADDL) [7]: 13.6
Kd [8]: 10 nM
Ratio (Aβ monomer/ADDL) [9]: 10
Kd [10]: 3.3 nM

B9: anti-ADDL antibody 19.3S33 (antibody, V domains shown)
VH: B1 VH
VL: B1 VL with N33S
binding result [6]: binds
